# Measurements: patent publication US20070178531A1 (BIOCHECK, published 2007)
# Changes are numbered by the printed parent chain.
# B1: rabbit monoclonal anti-human Id3, clone #BCH-4/#3-3 (antibody, V domains shown)
# VH: QSVEESGGRLVTPGTPLTLTCTVSGIDLSSYAMSWVRQAPGKGLEWIGVIFPSNNVYYASWAKGRFTISKTSTTVDLKITSPTTEDTATYFCASMGAFDSWGPGTLVTVSS
# VL: QVLTQTPSPVSAAVGGTVTINCQASQSIYNDNDLAWFQQKPGQPPKLLIYDASTLTSGVPSRFKGSGSGTQFTLTISDLDCDDAATYYCAARYSGNIYGFGGGTEVVVK
# notes: Rabbit IgG from a rabbit hybridoma; also called h Id3 MoAb 3-3
# B2: rabbit monoclonal anti-mouse/human Id3, clone #BCH-4/#16-1 (antibody, V domains shown)
# VH: QSVEESGGRLVTPGTPLTLTCTASGFSLSSYYIHWVRQAPGKALEWIGYISDGGTTYYASWAKGRFTISKTSSTTVDLKMTSLTTEDTATYFCARQGFNIWGPGTLVTVSL
# VL: AVLTQTPSPVSAAVGGTVTISCQSSQSVYNNNWLSWFQQKSGQPPKLLIYETSKLESGVPSRFKGSGSGTQFTLTIIDVQCDDAATYYCLGGYWTTSDNNIFGGGTEVVVK
# notes: Rabbit IgG from a rabbit hybridoma; also called m/h Id3 MoAb 16-1
# B3: rabbit monoclonal anti-mouse/human Id3, clone #BCH-4/#42-1 (antibody, V domains shown)
# VH: B2 VH
# VL: B2 VL with T95S
# notes: Rabbit IgG from a rabbit hybridoma; also called m/h Id3 MoAb 42-1
# B4: rabbit monoclonal anti-mouse/human Id3, clone #BCH-4/#6-1 (antibody, V domains shown)
# VH: B2 VH with S30N, Y31V, A43G, G54D, T56A, Y57R, S60T, D77N
# VL: B2 VL with T19S, Y29W, S41P, I77S, I101V
# notes: Rabbit IgG from a rabbit hybridoma; also called m/h Id3 MoAb 6-1
# B5: rabbit monoclonal anti-mouse/human Id3, clone #BCH-4/#17-3 (antibody, V domains shown)
# VH: B2 VH with S30N, Y31V, A43G, G54D, T56A, Y57R, S60T, D77N
# VL: B2 VL with T19S, Y29W, S41P, I77S, I101V
# notes: Rabbit IgG from a rabbit hybridoma; also called m/h Id3 MoAb 17-3; BCH-3/#17-3
# Molecular target: T1, Human Id1: Histidine (human, UniProt P41134 1-155, limits assumed)
# T1 construct: Fusion protein made in E. coli from vector pGW07; also called h-Id1: his; not shown: His tag
# T1 sequence (looked up): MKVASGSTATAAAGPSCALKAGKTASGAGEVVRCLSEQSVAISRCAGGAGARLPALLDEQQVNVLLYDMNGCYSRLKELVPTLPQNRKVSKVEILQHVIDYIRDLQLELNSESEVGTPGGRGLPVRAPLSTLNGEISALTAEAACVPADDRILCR
# Assay: ELISA, Ab 0.025 µg/ml
# Procedure: (§1) The rabbit monoclonal anti-human Id3 (clone #3-3) and the rabbit monoclonal anti-mouse/human Id3 (clones #6-1, 16-1, 17-3, and 42-1) produced in Example 6 were tested reactivity against the following antigens: mouse Id1:His, human Id1:His, mouse Id2:His, human Id2:His, mouse Id3:His, human Id3:His, mouse Id4:His, human Id4:His and GST.
# (§2) 1. Microtiter wells (prepared in accordance with Example 6) were coated (0.1 μg/well) with mouse Id1:His, human Id1:His, human Id2:His, human Id3:His, and 1.0 μg/well with GST. [0155] 2. Antibody Diluent: 0.25% (w/v) BSA in 0.015M KPO₄ Buffer, 0.85% (w/v) NaCl, 0.1% (w/v) NaN₃, pH=7.40 [0156] 3. Rabbit monoclonal anti-human Id3 (clone #3-3) prepared in Example 7 was diluted to […] with the antibody diluent. […] 4. Rabbit monoclonal anti-mouse/human Id3 (clones #6-1, 16-1, 17-3, 42-1) prepared in Example 7 was diluted to 0.005, 0.010, 0.025, 0.05, 0.10, 0.25, and 0.50 μg/ml with the antibody diluent. […] 5. Conjugate Diluent: 50% (v/v) which consists of an aqueous solution containing Fetal Bovine Serum in 0.05 M Tris, 1% (v/v) Proclin-300, pH 7.6. [0159] 6. Conjugate: Goat anti-rabbit IgG (H+L)-HRP conjugate. [0160] 7. TMB reagent. […] 8. Stop solution (1 N HCI). Method
# (§3) 1. Dispense 100 μL of antibody diluent, diluted rabbit monoclonal human Id3, and mouse/human Id3 hybridoma supernatants into appropriate wells. […] 2. Incubate at room temperature with mechanical shaking at 750 rpm for 90 minutes. [0165] 3. Remove the incubation mixture by flicking plate content into an appropriate waste container followed by rinsing the wells 5 times with distilled water. [0166] 4. Strike the wells sharply onto absorbent paper or paper towels to remove all residual water droplets. [0167] 5. Dispense 100 μL of 1:50,000 Goat Anti-Rabbit IgG-HRP Conjugate Reagent into each well. Gently mix for 5 seconds. [0168] 6. Incubate at room temperature with mechanical shaking at 750 rpm for 90 minutes. [0169] 7. Repeat procedures 3 and 4. [0170] 8. Dispense 100 μL of TMB Reagent into each well. Gently mix for 5 seconds. [0171] 9. Incubate at room temperature with mechanical shaking at 750 rpm for 20 minutes. […] 10.
row,Binder,A450 [A450]
1,B1,0.049
2,B2,0.046
3,B3,0.043
4,B4,0.048
5,B5,0.047

# Molecular target: T2, Human Id2: Histidine (human, UniProt Q02363 1-134, limits assumed)
# T2 construct: Fusion protein made in E. coli from vector pGW07; also called h-Id2: His; not shown: His tag
# T2 sequence (looked up): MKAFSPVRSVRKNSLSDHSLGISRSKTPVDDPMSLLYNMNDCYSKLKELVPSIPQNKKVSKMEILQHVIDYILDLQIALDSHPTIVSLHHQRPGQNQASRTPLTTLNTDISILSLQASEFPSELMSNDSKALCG
# Assay: ELISA, Ab 0.025 µg/ml
# Procedure: as §1, §2, §3
row,Binder,A450 [A450]
1,B1,0.044
2,B2,0.045
3,B3,0.071
4,B4,0.045
5,B5,0.054

# Molecular target: T3, Human Id3: Histidine (human, UniProt Q02535 1-119 at identity 1.00))
# T3 construct: Fusion protein made in E. coli from vector pGW07; also called h-Id3: His; Human Id3 (coated wells); not shown: His tag
# T3 chain: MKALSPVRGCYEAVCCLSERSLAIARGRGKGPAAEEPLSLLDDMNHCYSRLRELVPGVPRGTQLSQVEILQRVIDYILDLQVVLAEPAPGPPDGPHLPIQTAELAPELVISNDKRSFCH
# Assay: ELISA, Ab 0.025 µg/ml
# Procedure: as §1, §2, §3
row,Binder,A450 [A450]
1,B2,0.802
2,B3,1.44
3,B4,0.974
4,B5,1.27

# Molecular target: T4, Mouse Id1: Histidine (mouse, UniProt P20067-2 1-148, limits assumed)
# T4 construct: Fusion protein made in E. coli from vector pGW07; also called m-Id1-His; not shown: His tag
# T4 sequence (looked up): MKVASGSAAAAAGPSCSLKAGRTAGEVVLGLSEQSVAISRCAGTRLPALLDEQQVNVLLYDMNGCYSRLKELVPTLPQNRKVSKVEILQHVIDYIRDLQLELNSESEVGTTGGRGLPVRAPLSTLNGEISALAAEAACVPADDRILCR
# Assay: ELISA, Ab 0.025 µg/ml
# Procedure: as §1, §2, §3
row,Binder,A450 [A450]
1,B1,0.044
2,B2,0.044
3,B3,0.045
4,B4,0.046
5,B5,0.045

# Molecular target: T1, Human Id1: Histidine
# Assay: ELISA, Ab 0.000 µg/ml (blank)
# Procedure: as §1, §2, §3
row,Binder,A450 [A450]
1,B1,0.046
2,B2,0.043
3,B3,0.043
4,B4,0.045
5,B5,0.045

# Molecular target: T5, Mouse Id2: Histidine (mouse, UniProt P41136 1-134, limits assumed)
# T5 construct: Fusion protein made in E. coli from vector pGW07; also called m-Id2: His; not shown: His tag
# T5 sequence (looked up): T2 sequence (looked up) with S60T, A131V
# Assay: ELISA, Ab 0.000 µg/ml (blank)
# Procedure: as §1, §2, §3
row,Binder,A450 [A450]
1,B1,0.048
2,B2,0.046
3,B3,0.048
4,B4,0.044
5,B5,0.048

# Molecular target: T6, Mouse Id3: Histidine (mouse, UniProt P41133 1-119)
# T6 construct: Fusion protein made in E. coli from vector pGW07; also called m-Id3: His; Mouse Id3 (coated wells); not shown: His tag
# T6 sequence: T3 chain with G31S, A33S, A34T, A105T, N112K
# Assay: ELISA, Ab 0.000 µg/ml (blank)
# Procedure: as §1, §2, §3
row,Binder,A450 [A450]
1,B2,0.044
2,B3,0.047
3,B4,0.047
4,B5,0.047

# Molecular target: T3, Human Id3: Histidine
# Assay: ELISA, Ab 0.000 µg/ml (blank)
# Procedure: as §1, §2, §3
row,Binder,A450 [A450]
1,B2,0.046
2,B3,0.044
3,B4,0.043
4,B5,0.045

# Molecular target: T7, glutathione S-transferase (GST) (UniProt P08515 1-218 = GST)
# T7 construct: also called carrier protein GST
# T7 sequence (P08515 whole entry): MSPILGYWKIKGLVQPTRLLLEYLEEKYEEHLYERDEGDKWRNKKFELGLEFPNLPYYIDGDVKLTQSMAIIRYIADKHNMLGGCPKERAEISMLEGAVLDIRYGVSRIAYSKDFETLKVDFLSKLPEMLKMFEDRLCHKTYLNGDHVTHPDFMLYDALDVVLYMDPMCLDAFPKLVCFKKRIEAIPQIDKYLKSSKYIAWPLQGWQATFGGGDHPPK
# Assay: ELISA, Ab 0.000 µg/ml (blank)
# Procedure: as §1, §2, §3
row,Binder,A450 [A450]
1,B1,0.044
2,B2,0.048
3,B3,0.048
4,B4,0.047
5,B5,0.046

# Molecular target: T4, Mouse Id1: Histidine
# Assay: ELISA, Ab 0.000 µg/ml (blank)
# Procedure: as §1, §2, §3
row,Binder,A450 [A450]
1,B1,0.047
2,B2,0.044
3,B3,0.052
4,B4,0.045
5,B5,0.045
